Test results reported in patent US8357518B2, “Thermostable enzymes for the hydrolysis of mannan-containing polysaccharides” (The Board of Trustees of the University of Illinois, priority 2010, dated 2013).

Legend:
Test in all cases: Catalytic efficiency with oligosaccharides, HPAEC (Man5A-TM2)
Format in all cases: biochemical, Caldanaerobius polysaccharolyticus
Details in all cases: other: Man5A-TM2 0.3 μM, oligosaccharide 30 μM, citrate buffer 50 mM, pH 5.5, 5 min, triplicate
[1] = substrate: OC[C@H]1O[C@@H](O[C@H]2[C@H](O)[C@H](O)[C@H](O[C@H]3[C@H](O)[C@H](O)[C@H](O[C@H]4[C@H](O)[C@H](O)[C@H](O[C@H]5[C@H](O)[C@H](O)[C@H](O[C@H]6[C@H](O)[C@H](O)C(O)O[C@@H]6CO)O[C@@H]5CO)O[C@@H]4CO)O[C@@H]3CO)O[C@@H]2CO)[C@@H](O)[C@@H](O)[C@@H]1O
Description: (§1) Cloning, expression, and purification of Man5A-TM1, Man5A-TM2 and Man5B. C. polysaccharolyticus was cultured in TYG medium and DNA was isolated from mid-log cultures and purified using the Qiagen DNeasy Blood and Tissue kit with an integrated RNase treatment step. The genome of C. polysaccharolyticus was partially sequenced by the W. M. Keck Biotechnology Center at the University of Illinois at Urbana-Champaign. A Newbler assembly was generated which is comprised of ½ plate of FLX PE 454 data and ½ plate of 8 kb paired-end GSFLX Titanium data using a Genome Sequencer instrument from 454 Life Sciences (Branford, Conn.). The partial genome sequence was uploaded onto the Rapid Annotation using Subsystem Technology (RAST) server (Aziz et al., BMC Genomics, 9:75, 2008). Auto-annotation of the C. polysaccharolyticus partial genome sequence identified ORF0760 as a gene predicted to encode a bifunctional β-D-mannanase/endoglucanase (Man5B). Man5A was previously identified in a recombinant phage library of C. polysaccharolyticus genomic DNA, which was screened for endoglucanase activity (Cann et al., J Bacteriol, 181:1643, 1999) and the full sequence of this gene was also identified in the partial genome sequence for C. polysaccharolyticus.
(§2) The DNA sequence corresponding to man5B was amplified by the PicoMaxx high fidelity PCR kit using genomic DNA as the template with the primer set Man5B-Forward and Man5B-Reverse (Table 1-1). The primers were engineered to incorporate a 5′-[…] (SEQ ID NO: 54) extension in Man5B-F and a 5′-[…] (SEQ ID NO: 55) extension in Man5B-R, which facilitated subsequent directional cloning. The resultant man5B amplicon was then digested with T4 DNA polymerase exonuclease activity, annealed with a similarly digested pET-46b vector and introduced into E. coli JM109 by electroporation. Man5A-TM1 was amplified using genomic DNA as template with primers Man5A-TM1-F and Man5A-TM1-R (Table 1-1). The primer sets for Man5A-TM1 and Man5A-TM2 were designed to include 5′-NdeI and 3′-XhoI restriction sites for subsequent directional cloning. The resulting amplicons were then cloned into the pGEM-T vector via TA-cloning and subcloned in-frame with the hexahistidine (His6) encoding sequence of a modified pET-28a expression vector via its NdeI-XhoI polylinker site. The truncated protein Man5A-TM2 originally named ManA-SLH-CBD was cloned as described in a previous study (Cann et al., J Bacteriol, 181:1643, 1999). Expression of each of the resulting gene constructs yielded fusion proteins containing an N-terminal polyhistidine tag sequence to facilitate affinity purification via metal chelate chromatography. The resulting plasmid constructs pET46-Man5B, pET28a-Man5A-TM1, and pET-28a-Man5A-TM2 were sequenced to confirm the integrity of the cloned genes (W. M. Keck Center for Comparative and Functional Genomics at the University of Illinois at Urbana-Champaign).
(§3) The plasmid constructs were then introduced into E. coli BL-21 CodonPlus (DE3) RIL competent cells by heat shock, and grown overnight in lysogeny broth (LB) agar medium supplemented with ampicillin (100 μg/mL) and chloramphenicol (50 μg/mL) at 37° C. After 12 h, single colonies were selected and used to inoculate fresh LB (10 mL) supplemented with the antibiotics above at the same concentrations, followed by culturing with aeration for 8 h at 37° C. The pre-cultures were then inoculated into fresh LB (1 L) supplemented with ampicillin and chloramphenicol and the cultures were incubated at 37° C. with vigorous aeration (225 rpm/min). The cultures were grown to an optical density of 0.3 at 600 nm, and the temperature was shifted to 16° C. and gene expression was induced by the addition of 0.1 mM isopropyl β-D-thiogalactopyranoside (IPTG). […]

[2] = substrate: OC[C@H]1O[C@@H](O[C@H]2[C@H](O)[C@H](O)[C@H](O[C@H]3[C@H](O)[C@H](O)[C@H](O[C@H]4[C@H](O)[C@H](O)[C@H](O[C@H]5[C@H](O)[C@H](O)C(O)O[C@@H]5CO)O[C@@H]4CO)O[C@@H]3CO)O[C@@H]2CO)[C@@H](O)[C@@H](O)[C@@H]1O
Description: as §1, §2, §3

[3] = substrate: OC[C@H]1O[C@@H](O[C@H]2[C@H](O)[C@@H](O)[C@H](O[C@H]3[C@H](O)[C@@H](O)[C@H](O[C@H]4[C@H](O)[C@@H](O)C(O)O[C@@H]4CO)O[C@@H]3CO)O[C@@H]2CO)[C@H](O)[C@@H](O)[C@@H]1O
Description: as §1, §2, §3

[4] = substrate: OC[C@H]1O[C@@H](O[C@H]2[C@H](O)[C@@H](O)[C@H](O[C@H]3[C@H](O)[C@@H](O)[C@H](O[C@H]4[C@H](O)[C@@H](O)[C@H](O[C@H]5[C@H](O)[C@@H](O)[C@H](O[C@H]6[C@H](O)[C@@H](O)C(O)O[C@@H]6CO)O[C@@H]5CO)O[C@@H]4CO)O[C@@H]3CO)O[C@@H]2CO)[C@H](O)[C@@H](O)[C@@H]1O
Description: as §1, §2, §3

[5] = substrate: OC[C@H]1O[C@@H](O[C@H]2[C@H](O)[C@H](O)[C@H](O[C@H]3[C@H](O)[C@H](O)[C@H](O[C@H]4[C@H](O)[C@H](O)C(O)O[C@@H]4CO)O[C@@H]3CO)O[C@@H]2CO)[C@@H](O)[C@@H](O)[C@@H]1O
Description: as §1, §2, §3

[6] = substrate: OC[C@H]1O[C@@H](O[C@H]2[C@H](O)[C@@H](O)[C@H](O[C@H]3[C@H](O)[C@@H](O)[C@H](O[C@H]4[C@H](O)[C@@H](O)[C@H](O[C@H]5[C@H](O)[C@@H](O)C(O)O[C@@H]5CO)O[C@@H]4CO)O[C@@H]3CO)O[C@@H]2CO)[C@H](O)[C@@H](O)[C@@H]1O
Description: as §1, §2, §3

B1: Caldanaerobius polysaccharolyticus endo-β-mannanase Man5A truncation mutant Man5A-TM2, SEQ ID NO: 29 (Caldanaerobius polysaccharolyticus) (protein)
chain: AGTSGDGRFHVVGNKIVDPDGKDFIIKGVNIQGYRSWEKRSVLQDVHLIADVWKFNTVRLNCFIGQNNWGEGTGANNDIDAIIKAFTAKKVVVEIDLHDTTGYPPLSNPPPAPGQPSLDQAIAWFKELAAKYKDNPYVWFNTMNEPGSSTAPLDPQWKVANEEIIKAIRSTGADNIIVVDGWSYANEGIEQNTPTVDEKRSAVLTYGQDLLNADSAKNTIFAFHNYNEGDIQKKVEDYIDRANAKGLYVFMEEYGKDYSDAAKEGVKSGLQAVMNKGAGRIYWNWDGYDLYDLTSGTGRGSGWEINKTDGSKPTNLSWVGDKIWDDNHGITPTFDDQNPKVDLALERLIANNNGFKAGDKVQFTTFLRNSGDLPIGKDSKVVVKFYVDGVQLGDPVEISGGIAVGQRIPVTSPELTVSKTDFTVKAVIDSSSTYADGAEDAVIENNWIEAAFNSTAPSSGYELVVTGIKITPDTVKEGDYVQAQVTVANQGPEATPVTNIIGWFYVNGYYYTLDDAAKSCAEQDNVTLKPGESITLSTKVKYRAAAPFNFSFVLENLYADDQNQSNNSITVNVPVK
[1]
  kcat/Km: 28000 ± 8000 M⁻¹ s⁻¹
[2]
  kcat/Km: 12000 ± 2000 M⁻¹ s⁻¹
[3]
  kcat/Km: 1800 ± 500 M⁻¹ s⁻¹
[4]
  kcat/Km: 25000 ± 8000 M⁻¹ s⁻¹
[5]
  kcat/Km: 11000 ± 1000 M⁻¹ s⁻¹
[6]
  kcat/Km: 2200 ± 300 M⁻¹ s⁻¹
